Source: patent US20200407449A1

Molecular target: T1, mouse VISTA-Fc (mouse) (UniProt Q9D659)
T1 sequence (looked up): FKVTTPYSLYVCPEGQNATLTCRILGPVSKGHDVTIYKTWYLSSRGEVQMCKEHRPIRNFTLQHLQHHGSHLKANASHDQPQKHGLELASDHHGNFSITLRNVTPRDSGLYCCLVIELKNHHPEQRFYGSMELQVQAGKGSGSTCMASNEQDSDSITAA
Assay: monoclonal scFv phage ELISA, plate coated with 1 ug/ml VISTA-Fc, anti-M13-HRP

Row | Binder | OD
1 | 3C5 monoclonal scFv phage (scFv, V domains shown) VH: QVQLVQSGAEVKKPGASVKLSCKASGYTFSSYWMHWVRQAPGQRLEWMGEINPGNGHTNYNEKFKSRVTITVDKSASTAYMELSSLRSEDTAVYYCAKDIAYYDFWSGDAFDLWGQGTMVTVSS VL: SYELTQPLSVSVSPGQTASITCSGDKLGNKYASWYQQKPGQSPVLVIYQDNKRPSGIPERFSGSNSGNTATLTISGTQATDEADYYCQTWDRSTGVFGTGTKVTVLG | 0.106 OD
2 | 1A12 monoclonal scFv phage (scFv, V domains shown) VH: QMQLVESGGGLVEPGRSLRLSCTTSGFSFHDYTMYWVRQVPGKGLEWVSLISWDGTITFYADPVRGRFTISRDNSKNSLYLQMNSLRAEDTAVYYCAKEDRYDYYSGAFDIWGQGTVVTVSS VL: QSALTQPRSVSGSPGQSVTISCTGTSSDVGGYDYVSWYQQHPGKAPKLILNDVNKRPSGVPDRFSGSKSGNTASLTISGLQPDDEADYYCSSFAGSNTLRVFGGGTKLTVLG | 0.08 OD
